In data set [1] the target is endogenous human RER of HEK293 cells (human) (UniProt O75787). As to the kind of experiment: cell-based or functional assay.
For data set [2], the system named is renin/prorenin receptor (RER). As to the kind of experiment: RER mRNA by quantitative real-time PCR after renin/prorenin stimulation of HEK293 cells. It is filed as cell-based, human. As to the method:
(§1) HEK293 cells were seeded in 24-well plates and transfected with either 100 ng of pCEP4-PLZF-myc expression vector, 50 ng of indicated pGL3-basic construct and 10 ng of phRL-null plasmid (for luciferase assay), or 100 ng of pCEP4-PLZF-myc alone (for PCR experiments) per well as described above. siRNA transfection, renin stimulation and determination of reporter activity were performed as described above, except for an exceeded renin stimulation period of 3 hours.
(§2) RNA isolation and cDNA synthesis were performed as described above. qPCR was performed applying a SYBR Green I reaction mix and run on a Stratagene Mx3000P (Stratagene, La Jolla, Calif., USA) using the following primers: […]
(§3) Data represents the mean expression level±standard deviation (standardized to 18S rRNA expression) calculated according to the ddCT method of at least three independent measurements. Equality of PCR efficiencies has been verified applying the program LinRegPCR (Ramakers et al. 2003) and ANOVA testing.
(§4) For all cell culture studies immortalized human epithelial kidney cells (HEK293 cells) were used. […] Additional inhibition with 1 μM aliskiren was performed as indicated. 1 hour after pre-treatment with losartan±aliskiren cells were stimulated with either 5 nM renin, 5 nM prorenin, or the respective vehicle. Cells were harvested for mRNA expression analysis or determination of viable cell number and apoptosis after 3 or 24 hours, respectively. These experimental procedures have been described in detail previously (Schefe et al., 2006). All experiments were performed in independent triplicates.
(Real-time PCR tracks product formation cycle by cycle.)

The test system of data set [3] is renin/prorenin receptor (RER). The data set is described as follows: RER promoter luciferase reporter assay under renin stimulation. It is filed as cell-based, human. As to conditions: PLZF-overexpressing HEK293 cells, renin vs all controls. The procedure: (§5) The indicated cell types were seeded on day 1 in 12-well plates. 100 ng of indicated pGL3-basic constructs (encoding firefly luciferase) and 20 ng of phRL-null plasmid (encoding humanized Renilla luciferase for standardization of promoter activity; Promega) per well were transfected on day 2 at 60-80% confluency using GeneJuice (Merck Biosciences, Bad Soden, Germany) according to the manufacturer's protocol. Cells were harvested 48 hours after transfection using Passive Lysis Buffer (Promega). Reporter activities were measured in a Pharmingen Monolight 3010 luminometer (BD Biosciences, Erembodegem, Belgium) using the Dual-Luciferase Reporter Assay System (Promega). Promoter activity is expressed as relative luciferase activity (RLA) (Funke-Kaiser et al., 2003a). RLA data represent the mean±standard deviation of at least three single, parallel transfection experiments.
as §1
For orientation: In a reporter assay the amount or activity of a reporter protein is the signal.

The test system of data set [4] is renin/prorenin receptor (RER). The data set is described as follows: PI3K-p85α promoter luciferase reporter assay under renin stimulation. It is filed as cell-based, human. As to conditions: PLZF-overexpressing HEK293 cells, renin vs control. As to the method: as §5, §1
Data set [5] relates to renin/prorenin receptor (RER). The data set is described as follows: PI3K-p85α mRNA by quantitative real-time PCR after renin/prorenin stimulation of HEK293 cells. It is filed as cell-based, human. The procedure: as §1, §2, §3, §4
The subject of data set [6] is renin/prorenin receptor (RER). The data set is described as follows: PLZF translocation, fractionated extraction of cytosolic and nuclear proteins and Western blot. It is filed as cell-based, human. Particulars: HEK293 cells, c-myc-tagged PLZF, 10 nM renin. The procedure: Cytosolic and membrane proteins were isolated using the ProteoExtract Subcellular Proteome Extraction Kit (Calbiochem, Darmstadt, Germany). A fractionated extraction of cytosolic and nuclear proteins was performed as described previously (Funke-Kaiser et al., 2003a). Protein concentrations were determined using the DC Protein Assay (Bio-Rad, München, Germany). Cytosolic, membrane and nuclear fractions were controlled by Western blot using antibodies against Akt (mouse monoclonal, 5G3; 1:1,000; Cell Signalling, Danvers, Mass., USA), angiotensin AT1 receptor (rabbit polyclonal, sc-579; 1:2,000; Santa Cruz Biotechnology, Heidelberg, Germany) and TBP (rabbit polyclonal, sc-204; 1:1,000; Santa Cruz Biotechnology), respectively.
For PLZF translocation experiments HEK293 cells were seeded on day 1 in 6-well plates. 250 ng of pCEP4-PLZF-myc expression vector per well were transfected on day 2 at 40-60% confluency using GeneJuice (Merck Biosciences, Bad Soden, Germany) according to the manufacturer's protocol. […] Chemoluminescence was detected with ECL (Amersham, München, Germany), and subsequent exposition to Hyperfilm (Amersham).

For data set [7], the system named is HEK293 cells. As to the kind of experiment: Number of viable cells (ATP concentration). It is filed as cell-based, human. Particulars: HEK293 cells, 5 nM, 24 hours. The procedure:
as §4

The subject of data set [8] is HEK293 cells. The data set is described as follows: Caspase 3/7 activity as a measure of apoptosis. It is filed as cell-based, human. As to conditions: HEK293 cells, 5 nM, 24 hours. As to the method: as §4
The mark [9] stands for this setting: HEK293 cells, 5 nM, 3 hours, 1 μM losartan pre-treatment.

Chain of endogenous human RER of HEK293 cells (human) (O75787 17-350): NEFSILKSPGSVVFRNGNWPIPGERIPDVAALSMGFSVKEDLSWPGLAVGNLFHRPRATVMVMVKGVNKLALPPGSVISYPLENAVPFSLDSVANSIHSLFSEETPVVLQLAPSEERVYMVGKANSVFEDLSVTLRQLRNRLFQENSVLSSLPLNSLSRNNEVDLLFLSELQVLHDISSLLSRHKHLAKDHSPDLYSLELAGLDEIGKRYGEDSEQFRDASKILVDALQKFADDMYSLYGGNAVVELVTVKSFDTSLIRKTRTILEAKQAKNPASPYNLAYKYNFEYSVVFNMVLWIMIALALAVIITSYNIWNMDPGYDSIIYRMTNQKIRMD

B1: human recombinant renin (mammalian expression) (ligand, UniProt P00797 67-406, looked up)
chain: LTLGNTTSSVILTNYMDTQYYGEIGIGTPPQTFKVVFDTGSSNVWVPSSKCSRLYTACVYHKLFDASDSSSYKHNGTELTLRYSTGTVSGFLSQDIITVGGITVTQMFGEVTEMPALPFMLAEFDGVVGMGFIEQAIGRVTPIFDNIISQGVLKEDVFSFYYNRDSENSQSLGGQIVLGGSDPQHYEGNFHYINLIKTGVWQIQMKGVSVGSSTLLCEDGCLALVDTGASYISGSTSSIEKLMEALGAKKRLFDYVVKCNEGPTLPDISFHLGGKEYTLTSADYVFQESYSSKKLCTLAIHAMDIPPPTGPTWALGATFIRKFYTEFDRRNNRIGFALAR
In the case of B1, in data set [1], the PI3K-p85α mRNA (real-time PCR), HEK293 cells with PLZF overexpression was 105 % increase; the PI3K-p85α mRNA (real-time PCR), HEK293 cells without PLZF overexpression amounted to 30.2 % increase; the PI3K-p85α mRNA after 3 hours, 5 nM renin, HEK293 cells (% of vehicle control) came to 172; the PI3K-p85α promoter activity (luciferase reporter) in PLZF-overexpressing HEK293 cells was found to be 45 % increase. Also, in data set [1], the PLZF recruitment to the RER promoter (ChIP with real-time PCR) in HEK293 cells worked out at 6 fold; the RER mRNA (real-time PCR) in HEK293 cells after renin stimulation combined with PLZF transfection was 45.4 % of control; the RER mRNA (real-time PCR) in HEK293 cells after renin stimulation, without PLZF overexpression is 80.6 % of control; the RER mRNA after 3 hours, 5 nM renin, HEK293 cells (% of vehicle control) is 59.2. For the same molecule, in data set [1], the RER promoter activity (luciferase reporter) in PLZF-overexpressing HEK293 cells stood at 30 % decrease and the caspase 3/7 activity after 24 hours, 5 nM renin, HEK293 cells was determined as 31 % decrease. In addition, the “RER mRNA (first column set to 100%)” value in data set [2] (HEK293 cells with PLZF overexpression (pCEP4-PLZF) plus renin stimulation) turned out to be 45.4±4.7%. Besides, the “RER mRNA (first column set to 100%)” value in data set [2] (HEK293 cells without PLZF overexpression, renin stimulation vs vehicle) was determined as 80.6±3.3%. In data set [2] (setting [9]), the “RER mRNA, % of vehicle control” value is 59.2%. Further, in data set [3], the “decrease in the activity of a wild type RER promoter” value was “about 30%”. Moreover, in data set [4], the “increase in PI3K-p85α promoter activity” value is 45%. Moreover, the “increase of PI3K-p85α mRNA relative to vehicle control” value in data set [5] (HEK293 cells with PLZF overexpression) is given as 105.2±6.74%. In addition, the “increase of PI3K-p85α mRNA relative to vehicle control” value in data set [5] (HEK293 cells without PLZF overexpression) amounted to 30.2±7.9%. Besides, the “PI3K-p85α mRNA, % of vehicle control” value in data set [5] (setting [9]) amounted to 171.8%. In addition, in data set [6], the “translocation of PLZF from the cytoplasm to the nucleus” value was “clear increase in nuclear PLZF”. Also, in data set [7], the “increase of viable cell number compared to vehicle” value is given as 103.6%. The “reduction of caspase 3/7 activity” value in data set [8] was 31%.
